Measured values as given in the RNAGym collection of RNA variant scans (doi:10.7554/elife.90254).

B1: LINE1-mini (parent)
chain: GGCAGAGCUCAACACAGCGUGGCAAAGUGGCUGUGGCUAGACUGCC

Variants of: B1
Assay: self-cleavage, relative activity (ratio to wild type); higher = more cleavage; in vitro, sequencing; the parent is a self-cleaving ribozyme

Variant	self-cleavage
U9C G21A	0.04
U9C G21C	0.06
U9C G21U	0.04
C23U C42G	0.09
G21U A25G	1.23
G5C C31U	0.05
C23A C37A	0.06
C15G U43C	0.03
C18U A26U	1.72
G7A U38G	0.02
G17C G21A	1.72
G1A G7A	0.51
C15U U20G	0.49
C23G U38A	0.32
C13U U43A	0.1
G27U G44U	0.37
A4G G33A	0.12
A11U G22C	0.07
U9C C23U	0.02
A6C A14U	0.22
A24G G36C	0.11

Variant	self-cleavage
C18A G35A	0.05
C10G G22C	0.12
G1C G29A	0.16
G7A G40A	0.19
A26G U38G	0.01
A12U U28C	0.6
A14U C15U	0.18
A14C G29A	0.29
C18U A25G	0.26
G5A G27A	0.1
G5A G27C	0.07
G29C A39G	0.03
U20A C37U	0.05
A14C G22U	0.06
G19C U38C	0.28
C13U G17U	0.12
C15A U32A	0.06
G35U G36C	0.11
C42G	0.07
G5U C15U	0.08
C15A U34C	0.06

Variant	self-cleavage
G35U A39U	0.1
A24U U34C	0.09
G21A A26U	1.89
G5U C8A	0.53
C37U	0.07
G21C A26C	1.03
U32C A41G	0.07
A41U C46A	0.33
G22C C23G	0.28
C3A A26U	0.49
G1U G29C	0.2
C31G C46G	0.04
U32C U43G	0.13
G30U U32C	0.23
A11U U38G	0.01
A14C G21C	0.05
G35C A41C	0.06
G19A U32A	0.15
A4C A14G	0.1
C13G C15G	0.09
C13G C15U	0.15

Variant	self-cleavage
A4G G7C	0.15
A6U C45G	0.3
A4C A12U	0.17
A16U U32A	0.55
U9C C13A	0.05
U9C C13G	0.04
C37A C42U	0.16
G1C A25C	0.1
A11U G36U	0.03
A12G G40C	0.1
U34C G40A	0.11
A14C U20G	0.1
C8U G21A	0.39
C8U G21U	0.25
A24U A25C	1.63
G17U G44C	0.05
C13U C42U	0.09
A14C C15G	0.02
G33C U34C	0.03
C10U A24C	0.11
C10U A24U	0.48
